Tested on: GRE (glucocorticoid response element)-Luciferase reporter
Assay: GRE-luciferase reporter assay of transactivation potential of reconstructed GR alleles co-transfected into HEK 293 cells
Format: cell-based, human
Description: An exemplary assay for determining the transactivation potential of a GR polypeptide is described below. The GR nucleic acid sequence encoding the GR polypeptide of interest can be cloned into a first vector (e.g., pcDNA4, Invitrogen, Carlsbad, Calif.). A second vector can be constructed to contain a reporter gene, e.g., the luciferase gene, under the control of a GRE. These two vectors can be co-transfected into a cell, e.g., a human embryonic kidney cell (HEK 293). Skilled practitioners will recognize that a number of cell types can be used to test whether a GR polypeptide is functional. The cell will then express the GR polypeptide encoded by the GR nucleic acid sequence on the first vector. […] The product of the reporter gene, e.g., luciferase, can then be detected and quantified using conventional methods. For example, when a luciferin substrate is added, luciferase will produce luminescence that can be detected and quantified. […]
The reconstructed GR allele expression plasmids described above were co-transfected with a GRE (glucocorticoid response element)-Luciferase reporter plasmid (Stratagene) using Fugene HD/6 (Roche) into HEK (human embryonic kidney) 293 cells, grown in Dulbecco's Modified Eagle Medium with 10% fetal bovine serum and 1% Penicillin/Streptomycin (Invitrogen.). […] The differences in luminescence were graphed and analyzed.

B1: allele 66-63: Full-length human GR with substitutions N72D, V321A, R460K, F749G (protein, UniProt P04150 1-777, looked up, variant N72D V321A R460K F749G)
Glucocorticoid receptor: MDSKESLTPGREENPSSVLAQERGDVMDFYKTLRGGATVKVSASSPSLAVASQSDSKQRRLLVDFPKGSVSDAQQPDLSKAVSLSMGLYMGETETKVMGNDLGFPQQGQISLSSGETDLKLLEESIANLNRSTSVPENPKSSASTAVSAAPTEKEFPKTHSDVSSEQQHLKGQTGTNGGNVKLYTTDQSTFDILQDLEFSSGSPGKETNESPWRSDLLIDENCLLSPLAGEDDSFLLEGNSNEDCKPLILPDTKPKIKDNGDLVLSSPSNVTLPQVKTEKEDFIELCTPGVIKQEKLGTVYCQASFPGANIIGNKMSAISAHGVSTSGGQMYHYDMNTASLSQQQDQKPIFNVIPPIPVGSENWNRCQGSGDDNLTSLGTLNFPGRTVFSNGYSSPSMRPDVSSPPSSSSTATTGPPPKLCLVCSDEASGCHYGVLTCGSCKVFFKRAVEGQHNYLCAGKNDCIIDKIRRKNCPACRYRKCLQAGMNLEARKTKKKIKGIQQATTGVSQETSENPGNKTIVPATLPQLTPTLVSLLEVIEPEVLYAGYDSSVPDSTWRIMTTLNMLGGRQVIAAVKWAKAIPGFRNLHLDDQMTLLQYSWMFLMAFALGWRSYRQSSANLLCFAPDLIINEQRMTLPCMYDQCKHMLYVSSELHRLQVSYEEYLCMKTLLLLSSVPKDGLKSQELFDEIRMTYIKELGKAIVKREGNSSQNWQRFYQLTKLLDSMHEVVENLLNYCFQTFLDKTMSIEGPEMLAEIITNQIPKYSNGNIKKLLFHQK
luciferase activity (transactivation potential), in words (FIG. 5): very low level

B2: allele 66-62: Full-length human GR with substitutions N72D, V321A, N766S (protein, UniProt P04150 1-777, looked up, variant N72D V321A N766S)
Glucocorticoid receptor: MDSKESLTPGREENPSSVLAQERGDVMDFYKTLRGGATVKVSASSPSLAVASQSDSKQRRLLVDFPKGSVSDAQQPDLSKAVSLSMGLYMGETETKVMGNDLGFPQQGQISLSSGETDLKLLEESIANLNRSTSVPENPKSSASTAVSAAPTEKEFPKTHSDVSSEQQHLKGQTGTNGGNVKLYTTDQSTFDILQDLEFSSGSPGKETNESPWRSDLLIDENCLLSPLAGEDDSFLLEGNSNEDCKPLILPDTKPKIKDNGDLVLSSPSNVTLPQVKTEKEDFIELCTPGVIKQEKLGTVYCQASFPGANIIGNKMSAISAHGVSTSGGQMYHYDMNTASLSQQQDQKPIFNVIPPIPVGSENWNRCQGSGDDNLTSLGTLNFPGRTVFSNGYSSPSMRPDVSSPPSSSSTATTGPPPKLCLVCSDEASGCHYGVLTCGSCKVFFKRAVEGQHNYLCAGRNDCIIDKIRRKNCPACRYRKCLQAGMNLEARKTKKKIKGIQQATTGVSQETSENPGNKTIVPATLPQLTPTLVSLLEVIEPEVLYAGYDSSVPDSTWRIMTTLNMLGGRQVIAAVKWAKAIPGFRNLHLDDQMTLLQYSWMFLMAFALGWRSYRQSSANLLCFAPDLIINEQRMTLPCMYDQCKHMLYVSSELHRLQVSYEEYLCMKTLLLLSSVPKDGLKSQELFDEIRMTYIKELGKAIVKREGNSSQNWQRFYQLTKLLDSMHEVVENLLNYCFQTFLDKTMSIEFPEMLAEIITNQIPKYSSGNIKKLLFHQK
fold change in luciferase activity relative to the luciferase activity induced by the reference human GR polypeptide (medium with 10% fetal bovine serum, FIG. 5, experiment repeated six times): 5.5 fold
